# Laboratory results reported in patent publication US20260008862A1, “Bispecific Anti-BCMA x Anti-CD3 Antibodies and Uses Thereof” (Regeneron Pharmaceuticals, Inc., priority 2018, published 2026).
# B1: mAb16711: anti-BCMA antibody, HCVR/LCVR SEQ ID NOs 2/10 (antibody, V domains shown)
# VH: QVQLVESGGGVVQPGRSLRLSCAASGFTFSTYGIHWVRQAPGKGLEWVAVILHDGSSNYYAESVKGRFIISRDNSKNTLYLQMNSLRAEDTALYYCTKRYSEAAGPNWFDPWGQGTLVTVSS
# VL: DIQMTQSPSSVSASVGDRVTITCRASRGISSWLAWYQQKPGKAPKLLIHAASSLQSGVPSRFSGSGSGTDFTLTISSLQPEDFATYYCQQAISFPFTFGPGTKVDIK
# B2: REGN4515: anti-BCMA antibody, HCVR/LCVR SEQ ID NOs 50/58 (antibody, V domains shown)
# VH: QVQLVESGGGLVKPGGSLRLSCAASGFTFSDYYISWIRQAPGKGLEWVSYISSSGSSIKYADSVKGRFTISRDNAKNSLYLQMNSLRAEDTAVYYCAREGGNYGMDVWGQGTTVTVSS
# VL: DIQMTQSPSSVSASVGDRVTITCRASQGINNWLVWYQQKPGKAPKLLIYAATSLQSGVPSRFSGSGSGTDFTLTISSLQPEDFATYYCQQANSFPPTFGQGTKLEIK
# B3: REGN4514: anti-BCMA antibody, HCVR/LCVR SEQ ID NOs 34/42 (antibody, V domains shown)
# VH: EVQLVESGGGLVQPGRSLRLSCAASGFTFDDYAMHWVRQAPGKGLEWVSGISWNSGNMGYADSVKGRFTISRDNAKNSLFLQMHSLRAEDTAFYYCAKVRLTAFDFWGQGTLVTVSS
# VL: DIQMTQSPSSLSASVGDRVTITCRTSQSIGNYLNWFQQKPGKAPKLLIYTASSLQNGVPSRFTGSGSGTDFTLTISSLQPEDFVIYYCQQSFSTPYTFGQGTKLEIK
# Experiments:
# [1] = target: T1, surface BCMA on H929 cells (Homo sapiens, UniProt Q02223); experiment: FACS surface BCMA after overnight incubation, NCI-H929; format: cell-based; settings: range over detecting anti-BCMA antibodies
# T1 construct: human cell lines which express endogenous BCMA (e.g., NCI-H929); endogenous in cells; host or cells: multiple myeloma cell lines H929
# Protocol: (§1) Flow cytometric analysis was utilized to determine the impact of overnight incubation of multiple myeloma cell lines with anti-BCMA antibodies on the level of surface BCMA. […] After 18 hours, wells were washed with cold FACS wash (PBS+1% filtered FBS) and resuspended in 667 nM of the same anti-BCMA antibody in cold stain buffer (Miltenyi 130-091-221) for 30 minutes on ice. After incubation, the cells were washed twice with cold FACS wash (PBS+1% filtered FBS) and bound antibody was detected by incubating with the appropriate anti-human secondary antibody (anti-hIgG or anti-HIS) on ice for an additional 30-45 minutes. After incubation, cells were washed, re-suspended in 200 μL cold PBS containing 1% filtered FBS and analyzed by flow cytometry on a BD FACS Canto II. Fold increase in staining was calculated by dividing the MFI of stained cells previously incubated overnight in BCMA abs or DAPT by the MFI of stained cells that were incubated overnight in media only.
# [2] = target: surface BCMA on Molp8 cells (Homo sapiens, UniProt Q02223); experiment: FACS surface BCMA after overnight incubation, Molp8; format: cell-based; settings: range over detecting anti-BCMA antibodies
# Protocol: as §1
# [3] = target: T2, surface BCMA on U266 cells (Homo sapiens, UniProt Q02223); experiment: FACS surface BCMA after overnight incubation, U266; format: cell-based; settings: range over detecting anti-BCMA antibodies
# T2 construct: human cell lines which express endogenous BCMA; endogenous in cells; host or cells: multiple myeloma cell lines U266
# Protocol: as §1
# [4] = target: surface BCMA on MM1.S cells (Homo sapiens, UniProt Q02223); experiment: FACS surface BCMA after overnight incubation, MM1S; format: cell-based; settings: MM.1 S
# Protocol: as §1
# [5] = target: T3, human BCMA-MMH (Homo sapiens, UniProt Q02223); experiment: SPR (Biacore 4000) binding kinetics to human BCMA-MMH; settings: 25° C.
# T3 construct: (human BCMA-MMH); myc-myc-hexahistidine (C); made in house
# Protocol: (§2) The CM5 Biacore sensor surface was derivatized by amine coupling with a monoclonal mouse anti-human Fc antibody (GE, #BR-11008-39) to capture purified anti-BCMA mAbs and anti-BCMA×anti-CD3 bispecific mAbs. All Biacore binding studies were performed in a buffer composed of 0.01 M HEPES pH 7.4, 0.15M NaCl, 3 mM EDTA, 0.05% v/v Surfactant P20 (HBS-ET running buffer). […] Antigen samples were then injected over the anti-BCMA and anti-BCMA×anti-CD3 bispecific mAbs captured surfaces at a flow rate of 30 μL/minute. Antibody-reagent association was monitored for 5 minutes while dissociation in HBS-ET running buffer was monitored for 10 minutes. All of the binding kinetics experiments were performed at 25° C. Kinetic association (ka) and dissociation (kd) rate constants were determined by fitting the real-time sensorgrams to a 1:1 binding model using Scrubber 2.0c curve fitting software. Binding dissociation equilibrium constants (KD) and dissociative half-lives (t½) were calculated from the kinetic rate constants as: […]
# [6] = target: T4, human BCMA-MFC (Homo sapiens, UniProt Q02223); experiment: SPR (Biacore 4000) binding kinetics to human BCMA-MFC; settings: 25° C.
# T4 construct: (human BCMA-MFC); made in house
# Protocol: as §2
# [7] = test system: mouse BCMA-MFC; experiment: SPR (Biacore 4000) binding kinetics to mouse BCMA-MFC; settings: 25° C.
# Protocol: as §2
# [8] = test system: monkey BCMA-MMH; experiment: SPR (Biacore 4000) binding kinetics to monkey BCMA-MMH; settings: 25° C.; 90 nM antigen
# Protocol: as §2
# [9] = test system: monkey BCMA-MFC; experiment: SPR (Biacore 4000) binding kinetics to monkey BCMA-MFC; settings: 25° C.
# Protocol: as §2
# Chain of mouse BCMA-MFC (as listed by the source): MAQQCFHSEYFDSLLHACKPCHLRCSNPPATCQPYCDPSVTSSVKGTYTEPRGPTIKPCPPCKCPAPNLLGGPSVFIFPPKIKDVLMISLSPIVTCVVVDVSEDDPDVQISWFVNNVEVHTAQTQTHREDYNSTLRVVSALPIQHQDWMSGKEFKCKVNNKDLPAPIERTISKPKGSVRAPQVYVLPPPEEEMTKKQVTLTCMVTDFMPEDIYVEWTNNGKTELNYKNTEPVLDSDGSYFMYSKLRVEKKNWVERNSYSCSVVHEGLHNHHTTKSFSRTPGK
# Chain of monkey BCMA-MFC (as listed by the source): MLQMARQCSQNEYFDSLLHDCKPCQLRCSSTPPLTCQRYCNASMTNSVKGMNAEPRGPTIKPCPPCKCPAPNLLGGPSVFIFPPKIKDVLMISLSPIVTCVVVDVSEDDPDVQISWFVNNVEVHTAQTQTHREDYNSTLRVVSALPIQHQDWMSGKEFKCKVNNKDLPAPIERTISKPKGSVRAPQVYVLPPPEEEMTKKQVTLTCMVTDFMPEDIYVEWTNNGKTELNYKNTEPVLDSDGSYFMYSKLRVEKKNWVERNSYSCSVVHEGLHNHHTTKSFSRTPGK
# T4 sequence (Q02223 with tags, fused parts or gaps): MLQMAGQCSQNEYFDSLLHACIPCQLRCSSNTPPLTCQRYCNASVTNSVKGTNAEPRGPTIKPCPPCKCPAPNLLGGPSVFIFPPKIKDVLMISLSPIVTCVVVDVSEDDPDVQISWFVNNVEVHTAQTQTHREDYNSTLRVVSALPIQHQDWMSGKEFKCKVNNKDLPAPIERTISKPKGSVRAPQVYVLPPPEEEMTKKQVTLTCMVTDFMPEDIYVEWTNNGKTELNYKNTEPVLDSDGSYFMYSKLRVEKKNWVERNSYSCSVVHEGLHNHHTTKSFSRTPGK
# T3 sequence (Q02223 with tags, fused parts or gaps): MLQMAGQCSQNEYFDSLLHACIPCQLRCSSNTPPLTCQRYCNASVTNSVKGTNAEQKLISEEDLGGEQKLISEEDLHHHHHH
# Chain of monkey BCMA-MMH (as listed by the source): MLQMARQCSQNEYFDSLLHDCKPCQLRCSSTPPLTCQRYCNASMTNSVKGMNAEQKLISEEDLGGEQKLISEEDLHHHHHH
# Chain of surface BCMA on Molp8 cells (Q02223 whole entry): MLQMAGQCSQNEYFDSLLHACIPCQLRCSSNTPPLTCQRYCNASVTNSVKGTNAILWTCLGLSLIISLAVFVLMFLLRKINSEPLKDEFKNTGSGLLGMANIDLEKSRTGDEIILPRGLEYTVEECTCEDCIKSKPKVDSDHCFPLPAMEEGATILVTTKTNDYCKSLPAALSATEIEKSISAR
# T1 sequence (Q02223 whole entry): as above
# Chain of surface BCMA on MM1.S cells (Q02223 whole entry): as above
# T2 sequence (Q02223 whole entry): as above
Molecule,fold increase in MFI of BCMA over cells incubated in media only [1],fold increase in MFI of BCMA over cells incubated in media only [2],fold increase in MFI of BCMA over cells incubated in media only [3],fold increase in MFI of BCMA over cells incubated in media only [4],ka [5],kd [5],ka [6],kd [6],ka [7],kd [7],90 nM mfBCMA.mmh Bind (RU) [8],ka [9],kd [9]
C[C@H](NC(=O)Cc1cc(F)cc(F)c1)C(=O)N[C@H](C(=O)OC(C)(C)C)c1ccccc1 [DAPT],2.3-4 fold,2.4-8.6 fold,5.3-9.0 fold,11.9 fold,–,–,–,–,–,–,–,–,–
B1,–,–,–,–,2.01e+06 M⁻¹ s⁻¹,0.00347 s⁻¹,1.85e+06 M⁻¹ s⁻¹,0.00019 s⁻¹,1.07e+06 M⁻¹ s⁻¹,0.0011 s⁻¹,–,–,–
B2,–,–,–,–,869000 M⁻¹ s⁻¹,0.00247 s⁻¹,1.41e+06 M⁻¹ s⁻¹,8.95e-05 s⁻¹,947000 M⁻¹ s⁻¹,0.00418 s⁻¹,1.9 RU,2.13e+06 M⁻¹ s⁻¹,0.00716 s⁻¹
B3,–,–,–,–,1.06e+06 M⁻¹ s⁻¹,0.00285 s⁻¹,1.07e+06 M⁻¹ s⁻¹,4.53e-05 s⁻¹,397000 M⁻¹ s⁻¹,0.000269 s⁻¹,1.1 RU,492000 M⁻¹ s⁻¹,0.00724 s⁻¹
